This note sets out measurements from paper PMC12865133, “Macrocyclic Molecular Glues for the 14‐3‐3/ChREBP Interaction: Affinity and Cooperativity in an Inverse Relationship” (Angewandte Chemie (International Ed. in English), 2025).

What all share (experiment): fluorescence polarisation; two-dimensional fluorescence anisotropy; 14-3-3β titrated to FITC-labeled F1, F2, F3, F4 or pepD (10 nM) with varying concentrations of ChREBP peptide; fitted to a thermodynamic cooperativity model with KD II fixed at 1.5 µM; n = 2
Conditions in all cases: both partners purified

For one assay, the target named is T1, macrocycle F4 (not fully specified; fluorescein isothiocyanate (FITC) on the side chain of the first lysine; β-alanine after it; phosphoserine; triazole from azido phenylalanine (replacing Nph(+1)) cyclised to the …).
T1 chain: SFSXFKXK

The target of a further assay is FITC-labeled pepD (FITC label (position not given); phosphoserine (pSer); 4-nitrophenylalanine Nph(+1) and Nph(+4), counting from pSer).
The next assay deals with T2, macrocycle F3 (not fully specified; fluorescein isothiocyanate (FITC) on the side chain of the first lysine; β-alanine after it; phosphoserine; triazole from azido phenylalanine (replacing Nph(+1)) cyclised to the …).
T2 chain: SFSXFKXK

The target in the next assay is T3, macrocycle F1 (not fully specified; fluorescein isothiocyanate (FITC) on the side chain of the first lysine; β-alanine after it; phosphoserine; triazole from azido phenylalanine (replacing Nph(+1)) cyclised to the …).
T3 chain: SFSXFKXK

B1: 14-3-3β (natural protein, UniProt P31946 1-246, looked up)
chain: MTMDKSELVQKAKLAEQAERYDDMAAAMKAVTEQGHELSNEERNLLSVAYKNVVGARRSSWRVISSIEQKTERNEKKQQMGKEYREKIEAELQDICNDVLELLDKYLIPNATQPESKVFYLKMKGDYFRYLSEVASGDNKQTTVSNSQQAYQEAFEISKKEMQPTHPIRLGLALNFSVFYYEILNSPEKACSLAKTAFDEAIAELDTLNEESYKDSTLIMQLLRDNLTLWTSENQGDEGDAGEGEN
notes: 14-3-3 protein, beta isoform; also called 14-3-3 protein
As to B1, the “cooperativity factor α with ChREBP peptide” value with macrocycle F4 stood at 42 ± 1; with FITC-labeled pepD, 38 ± 2; in the assay with macrocycle F3, 12 ± 1; in the assay with macrocycle F1, 339 ± 35.
